Source: patent US7338938B2, “Methods for treating a patient undergoing chemotherapy” (University of Southern California, priority 1999, dated 2008)
Like-named read-outs stand apart in the source and are kept apart here.

Experiments:
[1] = system: female C57B1/6 mice treated with 200 mg/kg cytoxan
[2] = system: patients with newly diagnosed breast cancer receiving doxorubicin and cyclophosphamide; assay: Phase I/II dose escalation study of AII(1-7) before and after chemotherapy (Example 5); conditions: in vivo
[3] = system: mice injected with 150 mg/kg 5FU intravenously (WBC, platelets, hemoglobin); assay: Effect of angiotensin fragments and ACE inhibitor on recovery after chemotherapy (Example 4); type: in vivo; conditions: after i.v. 5FU
Protocol: The next study was designed to test the effect of angiotensin peptides and the angiotensin converting enzyme inhibitor, enalapril, on recovery of white blood cells, platelets and hemoglobin after chemotherapy, as well as on granulocyte-macrophage colony forming units (GM-CFU) in the blood and bone marrow.
Female […] mice (4 per group), 6-8 weeks old, were injected with 150 mg/kg 5FU intravenously. Administration of the peptides (AII (100 μg/kg/day), AII(1-7) (10 or 100 μg/kg/day), AII(1-5) (10 or 100 μg/kg/day), and AII(1-6) (100 μg/kg/day)), by subcutaneous injection, or enalapril (30 mg/kg/day) by oral gavage, was begun 2 days after administration of the antineoplastic and continued daily until 28 days after 5FU administration, at which time the mice were euthanized for evaluation of white blood cell numbers, platelets, hemoglobin levels and the number of GM-CFU in the bone marrow and peripheral blood. On days 7, 10, 14 and 21 after 5FU administration, blood was taken under anesthesia from the retro-orbital sinus to assess white blood cell number, platelet number, and hemoglobin levels.
The mice were bled from the retro-orbital sinus at days 7, 10, 14 and 21. The mice were anesthetized with Metofane (an inhaled anesthesia). Approximately 150-200 μl of blood were obtained from the retro-orbital sinus with a heparinzed capillary tube. The blood was then placed in a 1.7 ml microfuge tube containing 10 mM EDTA and held on ice until further processing.
One hundred μl of blood was pipetted into a centrifuge tube, to which 900 μl of distilled water was added. The blood and water were mixed by inversion and allowed incubate at 4° C. for 20 minutes. The tube was then centrifuged at 12000 rpm to precipitate the cellular debri for 20 to 30 minutes at room temperature. Twenty μl of the supernatant from this centrifugation was then added into triplicate wells of a 96 well plate containing 180 μl of distilled water. The optical density, was then read using a microplate reader at […].
Twenty μl of blood was mixed with 200 μl of red blood cell (RBC) lysing solution (0.83% NH4Cl, 10 mM EDTA, 0.5% NaHCO3). The mixture was then incubated for 10 minutes at 4° C. After this incubation, the supernatant was removed and the pellet was resuspended in 100 μl of PBS. To this, 100 μl of 0.04% trypan blue was added. This mixture was vortexed and the number of WBC (baseline was approximately 10^7 cells/ml) was evaluated by hematocytometer under light microscopy and the number: of platelets (baseline was approximately 2.5×10^8 platelets/ml) was evaluated by hematocytometer under phase contrast microscopy.
The blood was harvested by cardiac puncture on day 10 to assess mobilization of myeloid progenitors into the peripheral blood. The femurs and tibia were also collected and the bone marrow was harvested by flushing with PBS containing 2% fetal calf serum. After collection of the blood and bone marrow, the red blood cells were lysed with a hypotonic solution (described above), mixed with 0.04% trypan blue, and the number of nucleated cells assessed by hematocytometer under light microscopy. Aliquots of cells were then resuspended at 1×10^5 cells/ml (bone marrow) or 1×10^6 cells/ml Flood). […]

[4] = animal daily doses 10 to 1,000 μg/kg for 30 days; human 2.5 to 100 μg/kg/day
Protocol: Based upon safety evaluation studies in animals (where the daily doses tested ranged from 10 to 1,000 μg/kg for 30 days) and the pharmacology profile of, AII(1-7), the dose range used in humans ranged from 2.5 to 100 μg/kg/day over at least 10 days.

[5] = system: patients with newly diagnosed breast cancer receiving doxorubicin and cyclophosphamide

## Asp-Arg-Val-Tyr-Ile-His-Pro [AII(1-7)]
[1]; 100 μg/kg/day, started 2 days prior to cytoxan
  number of GM-CFU in the bone marrow: slightly reduced
[1]; administration initiated 2 days after chemotherapy
  number of myeloid progenitor cells in the bone marrow: increased the number of myeloid progenitor cells in the bone marrow
[1]; administration initiated after cyclophosphamide treatment
  number of myeloid progenitors in the peripheral blood: increased the number of myeloid progenitors in the peripheral blood
[1]; s.c. treatment initiated two days after the chemotherapeutic
  recovery of WBC after intravenous cyclophosphamide: accelerated the recovery of WBC
[1]; treatment initiated two days after cyclophosphamide
  time after cyclophosphamide at which increase in WBC number was observed: ≤ 9 days
[1]; treatment initiated two days prior to cyclophosphamide, starting on day 14
  WBC number compared with control: decrease in WBC number compared with control
[2]
  drug related serious adverse events: No drug related serious adverse events
  safety (summary): safe without observed dose limiting toxicities
[3]
  platelets after administration: increase in platelets
[4]
  safety margin of human dose range over the animal exposures: 9-10 fold
[5]; 50 μg/kg/day AII(1-7)
  change in platelet number: only day 12 showed any change in platelet number
[5]; 2.5 to 100 μg/kg/d
  dose-limiting toxicities: No dose-limiting toxicities
[5]; AII(1-7) 2.5 μg/kg
  Toxicity: ANC < 1000/μl (frequency): 100%
  Toxicity: Hgb < 10 gm/dl (frequency): 66%
  Toxicity: Lymph < 500/μl (frequency): 66%
  Toxicity: Platelet < 80 K/μl (frequency): 0%
  Toxicity: WBC < 2000/μl (frequency): 66%
[5]; AII(1-7) 10 μg/kg
  Toxicity: ANC < 1000/μl (frequency): 100%
  Toxicity: Hgb < 10 gm/dl (frequency): 33%
  Toxicity: Lymph < 500/μl (frequency): 33%
  Toxicity: Platelet < 80 K/μl (frequency): 0%
  Toxicity: WBC < 2000/μl (frequency): 66%
[5]; AII(1-7) 50 μg/kg
  Toxicity: ANC < 1000/μl (frequency): 100%
  Toxicity: Hgb < 10 gm/dl (frequency): 0%
  Toxicity: Lymph < 500/μl (frequency): 33%
  Toxicity: Platelet < 80 K/μl (frequency): 0%
  Toxicity: WBC < 2000/μl (frequency): 66%
[5]; AII(1-7) 75 μg/kg
  Toxicity: ANC < 1000/μl (frequency): 100%
  Toxicity: Hgb < 10 gm/dl (frequency): 0%
  Toxicity: Lymph < 500/μl (frequency): 0%
  Toxicity: Platelet < 80 K/μl (frequency): 0%
  Toxicity: WBC < 2000/μl (frequency): 100%
[5]; AII(1-7) 100 μg/kg
  Toxicity: ANC < 1000/μl (frequency): 100%
  Toxicity: Hgb < 10 gm/dl (frequency): 0%
  Toxicity: Lymph < 500/μl (frequency): 0%
  Toxicity: Platelet < 80 K/μl (frequency): 0%
  Toxicity: WBC < 2000/μl (frequency): 33%
[5]; across doses
  platelets: dose-dependent increase in platelets
[5]; all doses
  restoration of hemoglobin prior to the next cycle: restoration of hemoglobin prior to the next cycle was observed
[5]; before or after chemotherapy
  over-production of formed blood elements: No over-production of formed blood elements
[5]; chemotherapy patients
  Alopecia (frequency by treatment group): 46%
  Anemia (frequency by treatment group): 7%
  Fatigue (frequency by treatment group): 93%
  Headache (frequency by treatment group): 26%
  Myalgia/Muscle-skeletal pain (frequency by treatment group): 53%
  Nausea (frequency by treatment group): 93%
  Stomatitis (frequency by treatment group): 40%
  Vomiting (frequency by treatment group): 80%
[5]; compared to filgrastim
  frequency of grade 2-4 anemia: reduced the frequency
  frequency of grade 2-4 thrombocytopenia: reduced the frequency
  frequency of grade 3-4 lymphopenia: reduced the frequency
  late neutrophil recovery: enhanced compared to filgrastim
[5]; following 10-12 days of AII(1-7), as little as 1 dose of filgrastim normalizes the neutrophil count
  synergy between filgrastim and AII(1-7): possible synergy
[5]; in vivo
  ability to maintain on cycle, full intensity chemotherapy: permitted the patients to maintain full intensity chemotherapy on cycle
  cycle delays due to neutropenia: No cycle delays due to neutropenia
  dose at which anemia correction with each cycle was observed: ≥ 2.5 µg/kg
  dose intensity of chemotherapy received by all study patients: 100%
  doses that appear to be active: greater than 10 μg/kg/day
  hematopoietic lineages: increase in multiple hematopoietic lineages
  level of nadir in number of white blood cells and absolute neutrophil count and time to these nadirs: dose dependent increase
  mobilization of hematopoietic progenitors into the peripheral blood: mobilization of hematopoietic progenitors into the peripheral blood
  neutrophil nadirs: not affected
  optimal dosage range: 50 to 75 µg/kg/day
  recovery towards baseline in formed blood elements: improves the recovery towards baseline in all formed blood elements
[5]; lowest dose of AII(1-7)
  day of nadir in platelet number: 12 days
  hemoglobin after chemotherapy: reduction in hemoglobin was observed
  hemoglobin level by the next cycle: returned to baseline levels by the next cycle
[5]; next higher dose than 50 μg/kg/day
  change in platelet number: no decrease in platelet number occurred
[5]; of that observed with filgrastim treatment
  reduction of the frequency of stomatitis: 30%
[5]; patients treated at 2.5 and 10 μg/kg AII(1-7)
  doses of filgrastim needed at day 15 to treat grade 4 neutropenia: 1-2 doses
[5]; patients with or without a history of hypertension
  acute effect on blood pressure following administration: No acute affect on blood pressure
[5]; relative to historical numbers and filgrastim controls
  frequency of headache, muscle pain and alopecia: decreasing the frequency
[5]; subsequent dose increases of AII(1-7)
  anemia: slight to no anemia
